Tests used:
[1] = system: primary mouse mammary epithelial cells; experiment: DNA damage responses (cell cycle arrest, apoptosis) in primary mouse mammary epithelial cells; assay type: cell-based; conditions: RANKL 1 μg/ml
Experimental: a, Western Blot analysis for γH2AX, phosphorylated (P) Chk1, total Chk1, p53 and β-actin in isolated primary mouse mammary gland epithelial cells in response to γ-irradiation (2 Gray) in the presence (1 μg/ml) or absence of RANKL stimulation. b,c, FACS analysis of propidium iodide (PI) stained b, mammary epithelial cells and c, SKBR3 human breast cancer cells after γ-irradiation (2 Gray) in the absence or presence (1 μg/ml) of RANKL. Data are representative of at least 3 experiments. Apoptotic cells with a DNA content <2n appear in the sub-G1 region. Percent of cells in sub-G1 (M1), G1-phase (M2), S/G2/M-phase (M3) as well as polyploid cells with a DNA content >4n are given for the indicated time points.
a,b, FACS analysis of a, mammary epithelial cells and b, SKBR3 human breast cancer cells incubated with the genotoxic agent doxorubicin (Dox, 1 μM) in the presence (1 μg/ml) or absence of RANKL. Data are representative of at least 3 experiments. Percent of cells in sub-G1 (M1), G1-phase (M2), S/G2/M-phase (M3) as well as polyploid cells with a DNA content >4n are given for 24 and 36 hours after doxorubicin treatment. c, mRNA expression of pro-apoptotic genes Bim, Puma, and Noxa 6 hours after γ-irradiation (2 Gray) in the presence (1 μg/ml) or absence of RANKL stimulation. Data are shown as fold change compared to control (+/−sem). n=3). *P<0.05; **P<0.005 (Student's t-test).
For measurement of cell cycle arrest and apoptosis primary mouse mammary epithelial cells and SKBR3 human breast cancer cells were seeded at a cell-density of 100000 cells/well in a 6-well plate and allowed to grow for 24 hours. Cells where then treated with doxorubicin (1 μM) or γ-irradiation (2 Gray) in the absence or presence of recombinant RANKL (1 μg/ml). Cell cycle arrest and numbers of dead cells were determined using propidium iodine staining. To determine in vivo mammary gland epithelial cell death, control and RANK^Δmam littermate females were γ-irradiated with a total dose of 5 Gray (Gy). Six hours later, mammary glands were isolated and immunostained for active Caspase 3 (Cell Signaling) indicative of apoptosis.

[2] = system: SKBR3 breast cancer cells; experiment: Growth curve of SKBR3 breast cancer cells; assay type: cell-based, human; conditions: RANKL (1 μg/ml), 3 days
Experimental: a, Western blotting for phosphorylated (P) p65 NFκB, total p65 NFκB, phosphorylated (P) IκBα, total IκBα, phosphorylated (P) ERK1/2, total ERK1/2, phosphorylated (P) p38-MAPK, and p38-MAPK in human SKBR3 breast cancer cells in response to RANKL stimulation (1 μg/ml). Data are representative of 3 experiments. b, Growth curve of SKBR3 breast cancer cells cultured in normal growth medium (control, DMEM supplemented with 10% FCS) or in the presence of RANKL (1 μg/ml). Cell numbers were determined by counting live cells (trypan blue-exclusion) over 3 days. c, Onset of palpable mammary tumors in NFATc1^Δmam (n=10) and age matched littermate control (n=16) females treated with MPA pellets and DMBA. Data are shown as percentage of tumor free mice after the last DMBA challenge. No significant difference was found. d, Quantification of NFATc1 mRNA expression in purified mammary epithelial cells (MECs) and MPA-driven mammary tumors from NFATc1^Δmam and littermate control females. mRNA was determined by qRT-PCR. Data are shown as fold change compared to control (+/−sem). n=5 Per group. *P<0.05 (Student's t-test).

B1: RANKL: Receptor Activator of NF-κB Ligand; recombinant murine RANKL used for stimulation (protein, UniProt O35235 139-316, looked up)
Tumor necrosis factor ligand …: FSGAPAMMEGSWLDVAQRGKPEAQPFAHLTINAASIPSGSHKVTLSSWYHDRGWAKISNMTLSNGKLRVNQDGFYYLYANICFRHHETSGSVPTDYLQLMVYVVKTSIKIPSSHNLMKGGSTKNWSGNSEFHFYSINVGGFFKLRAGEEISIQVSNPSLLDPDQDATYFGAFKVQDID
B1 was tested, and the “γ-irradiation-induced upregulation of Bim, Puma, and Noxa mRNA” value ([1]; 6 hours after γ-irradiation (2 Gray)) was “did not occur”, the “cell death after DNA damage” value ([1]; doxorubicin (1 μM)) was “marked protection from cell death” and the “early cell cycle arrest after DNA damage” value ([1]; doxorubicin (1 μM)) was “did not alter”. The “cell death after DNA damage” value ([1]; γ-irradiation (2 Gray)) was “marked protection from cell death”, the “early cell cycle arrest after DNA damage” value ([1]; γ-irradiation (2 Gray)) was “did not alter” and the “induction of γH2AX and p53 or activation of Chk1” value ([1]; γ-irradiation (2 Gray)) was “did not alter”. For the same molecule, the “proliferation of SKBR3 cells” value [2] was “induced”.
